Measurements as given in patent US20080227700A1, “Compositions and Methods for Treatment of Protein Misfolding and Protein Aggregation Diseases” (priority 2004, published 2008).

Legend:
[1] = molecular target: beta amyloid (Homo sapiens, UniProt P05067); assay: αB crystallin protein pin array screened for binding to beta amyloid; details: immobilized 8-mer peptide; absorption at 450 nm; assayed 2-5 times
Source text: αB Crystallin peptides that bind the target protein beta-amyloid were identified by screening an αB crystallin protein pin array, which provides a systematic method for evaluating interactions between peptides corresponding to residues 1-175 of human αB crystallin and selected target proteins in a parallel and simultaneous manner.
Peptides were synthesized on derivatized polyethylene pins arranged in a microtiter plate format. Each peptide was 8 amino acids in length and consecutive peptides were offset by 2 amino acids. All peptides were covalently bonded to the surface plastic pins. The first immobilized peptide was 1MDIAIHHP8 and the last peptide was 168PAVTAAPK175 for the human αB crystallin.
After synthesis, the pins were pre-coated at room temperature with 2% Bovine Serum Albumin (BSA), 0.1% Tween-20 and 0.1% Sodium azide in 10 mM phosphate buffered saline pH 7.2 (PBS) for 1 hr, and washed three times for 10 mins each with 10 mM PBS. To screen for binding to the peptides, fixed concentrations of the target protein beta amyloid was dissolved in 10 mM PBS, containing 0.05% Tween-20, added to each well and incubated for 1 hr at room temperature. The pin array was washed three times for 10 mins each with 10 mM PBS, containing 0.05% Tween-20. Monoclonal or polyclonal primary antibodies for the target protein beta amyloid was diluted into PBS buffer, added to each well and incubated for 1 hr at room temperature. Subsequently, the pin array was washed three times for 10 mins each with 10 mM PBS containing 0.05% Tween-20. Anti-rabbit horse-radish peroxidase conjugate secondary antibodies was diluted into PBS buffer, added to each well and incubated for 1 hr at room temperature. The pin array was washed three times for 10 mins each with 10 mM PBS containing 0.05% Tween-20. A chromogenic substrate of horse-radish peroxidase 3,3′,5,5′-Tetramethylbenzidine (TMB) (Pharmingen, San Diego, Calif.) which is colorless was added, and the reaction was carried out for 45 min.
The reaction was stopped by adding 6N sulfuric acid, which changes the color from blue to yellow. The absorption at 450 nm was measured by an ELISA reader (BioTek, Winooski, Vt.).
The pin array was regenerated by sonication in a water bath (VWR Aquasonic, West Chester, Pa.) with 100 mM PBS, containing 1% Sodium dodecyl sulfate (SDS) and 0.1% 2-Mercaptoethanol @ 60° C. for 10 mins. Next, the pin array was rinsed three times in deionized water, preheated to 60° C. for 30 secs each time, and shaken in water preheated at 60° C. for 30 min. The pin array was then washed with methanol at 60° C. for 15 secs and air-dried and stored @−20° C. for future use. Each target protein was assayed 2-5 times against the human αB crystallin protein pin array peptides to verify the reproducibility of the results. Peptides numbered 5, 7, 8, 9, 13, 19, 22, 23, 24, 27, 35, 38, 45, 51, 52, 56, 57, 61, 66, 71, 72, and 79 in Table 2 reproducibly tested positive in the protein pin assay.

[2] = molecular target: T1, γD crystallin (Homo sapiens, UniProt P07320); assay: Protein pin array interaction with γD crystallin; assay type: binding; design: purchased; details: unheated γD crystallin; similar peptide sequences with γD crystallin pre-heated at 45° C. for fifteen minutes
T1 sequence (P07320 1-174): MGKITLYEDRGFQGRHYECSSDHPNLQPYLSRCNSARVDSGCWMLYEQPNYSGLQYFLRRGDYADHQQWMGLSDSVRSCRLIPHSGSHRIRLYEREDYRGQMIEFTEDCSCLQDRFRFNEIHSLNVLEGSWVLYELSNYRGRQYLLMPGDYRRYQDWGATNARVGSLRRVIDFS
Source text: (§1) Synthesis of Pins, binding and detection of peptides binding to ligand proteins. The αB crystallin protein pin array was used to measure the interaction between peptides and chaperone target proteins including bovine βH crystallin, human γD crystallin, equine alcohol dehydrogenase (ADH) and porcine citrate synthase (CS) as described (FIG. 12). Ghosh and Clark, Protein Sci 14: 684-95, 2005.
(§2) Refer to the methods section for detailed protocols. The absorbance corresponding to the blue coloration in each well was measured at λ=450 nm and plotted against the amino acid sequence of the corresponding peptide in that well (FIGS. 13 and 14). Wells containing peptides that have strong interactions with target proteins are dark blue and wells containing peptides that have weak or no interaction with target proteins are light blue or clear.
(§3) The purity of the target proteins used in the pin array assays, bovine βH crystallin, human γD crystallin, equine alcohol dehydrogenase (ADH) and porcine citrate synthase (CS) were determined to be >90% by SDS-PAGE. In addition, primary antibodies for each target protein were specific to that target protein and consequently contaminating proteins that may bind to the peptides will not be detected. Eighty-four sequential and overlapping peptide fragments corresponding to residues 1-175 of human αB crystallin were synthesized employing a simultaneous peptide synthesis strategy developed by Geysen, called Multipin Peptide Synthesis (Mimotopes, San Diego, Calif.). Geysen, Southeast Asian J Trop Med Public Health 21: 523-33, 1990; Chin et al., J Org Chem 62: 538-539, 1997. Peptides were immobilized on derivatized polyethylene pins arranged in a microtiter ELISA plate format. Each peptide was eight amino acids in length and consecutive peptides were offset by two amino acids. All peptides were bound covalently to the surface of the plastic pins. The first peptide was […] for human αB crystallin.
(§4) Ghosh and Clark, Protein Sci 14: 684-95, 2005. […] The intensity of the blue color in the wells was measured at 450 nm using an ELISA plate-reader (BioTek, Winooski, Vt.). The intensity of the blue color (plotted on the X-axis) was a measure of the interaction between αB crystallin peptides (plotted on the Y-axis) and target proteins. To measure the effect of temperature on the interactions between interactive peptides and the target proteins, the target proteins were heated in a water-bath at 45° C. for fifteen minutes prior to use. Pin arrays are unable to differentiate between monomers, dimers or oligomers of target proteins that exist in solution. Instead, pin arrays are very sensitive detectors of interactions between individual peptides and the entire population (monomers, dimers or oligomers) of specific target proteins that may exist in solution under specific conditions. Each target protein was assayed two to five times. A single pin array was used for all experiments and no change in interactions was observed after more than thirty repetitions. The last three peptides of the protein pin array, 163REEKPAVT170, 165EKPAVTAA172, 167PAVTAAPK174, correspond to the epitope (163REEKPAVTAAPKK175) recognized by the primary antibody for human αB crystallin. A positive reaction is observed for these three peptides in the absence of human αB crystallin as the ligand due to direct binding of the anti-human αB crystallin antibody to these three peptides. The loss of efficiency for the pin array was measured using this assay. The loss of efficiency for the pin array was determined to be <5% by after more than 30 assays.
(§5) The amino acid sequences of each 8-mer human αB crystallin peptide immobilized sequentially on 84 pins in a 96-well ELISA plate format are listed on the Y-axis. […]

[3] = molecular target: T2, equine alcohol dehydrogenase (ADH) (Equus caballus, UniProt P00327); assay: Protein pin array interaction with alcohol dehydrogenase; assay type: binding; details: ADH as ligand, unheated and pre-heated
T2 construct: purchased
Source text: as §1, §2, §3, §4
(§6) The Y-axis lists the amino acid sequences of the 8-mer peptides that are immobilized sequentially in a 96-well format. […]

[4] = system: bovine βH crystallin; assay: Protein pin array interaction with βH crystallin; assay type: binding; details: unheated βH crystallin; similar maxima with βH crystallin pre-heated at 45° C. for fifteen minutes
Source text: as §1, §2, §3, §4, §5

[5] = molecular target: T3, porcine citrate synthase (CS) (Sus scrofa, UniProt P00889); assay: Protein pin array interaction with citrate synthase; assay type: binding; details: CS as target protein, unheated and pre-heated
T3 construct: purchased
T3 sequence (P00889 28-464): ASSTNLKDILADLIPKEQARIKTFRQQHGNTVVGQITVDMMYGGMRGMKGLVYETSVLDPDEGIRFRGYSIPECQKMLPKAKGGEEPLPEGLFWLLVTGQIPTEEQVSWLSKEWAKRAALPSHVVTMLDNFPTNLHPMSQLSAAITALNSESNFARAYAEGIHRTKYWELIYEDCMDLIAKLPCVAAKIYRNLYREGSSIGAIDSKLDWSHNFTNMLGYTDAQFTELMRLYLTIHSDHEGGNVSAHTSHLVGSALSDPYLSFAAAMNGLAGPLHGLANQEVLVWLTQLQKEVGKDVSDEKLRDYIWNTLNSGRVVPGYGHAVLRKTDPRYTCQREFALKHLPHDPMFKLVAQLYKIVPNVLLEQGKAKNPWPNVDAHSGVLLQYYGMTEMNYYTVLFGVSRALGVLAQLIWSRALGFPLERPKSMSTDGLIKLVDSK
Source text: as §1, §2, §3, §4, §6

T2 sequence (P00327 whole entry): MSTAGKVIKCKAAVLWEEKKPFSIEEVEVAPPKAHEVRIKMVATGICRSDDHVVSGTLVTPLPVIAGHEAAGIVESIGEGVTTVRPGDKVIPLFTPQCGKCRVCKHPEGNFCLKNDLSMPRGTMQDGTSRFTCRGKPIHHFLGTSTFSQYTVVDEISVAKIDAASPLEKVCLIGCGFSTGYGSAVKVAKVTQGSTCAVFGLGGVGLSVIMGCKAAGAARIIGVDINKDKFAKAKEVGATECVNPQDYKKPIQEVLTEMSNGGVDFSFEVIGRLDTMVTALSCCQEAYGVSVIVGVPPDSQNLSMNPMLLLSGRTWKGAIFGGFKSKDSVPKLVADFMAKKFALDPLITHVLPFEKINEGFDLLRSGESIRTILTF

| Sequence | protein pin assay result with target protein beta amyloid [1] | absorbance at λ=450 nm, interaction with γD crystallin [2] | absorbance at λ=450 nm, interaction with ADH [3] | absorbance at λ=450 nm, interaction with βH crystallin [4] | absorbance at λ=450 nm, interaction with CS [5] |
| --- | --- | --- | --- | --- | --- |
| DQFFGEHL [Peptide 13] | positive | maximum absorbances |  |  |  |
| EFHRKYRI [Peptide 59] |  | maximum absorbances |  |  |  |
| FFGEHLLE [Peptide 14] |  |  | Maximum absorbances |  |  |
| FHSPSRLF [Peptide 9] | positive |  |  |  |  |
| FISREFHR [Peptide 57] | positive |  |  | Maximum absorbances | absorbance maxima |
| FPFHSPSR [Peptide 8] | positive |  |  |  | absorbance maxima |
| FSVNLDVK [Peptide 38] | positive | maximum absorbances | Maximum absorbances | Maximum absorbances | absorbance maxima |
| FYLRPPSF [Peptide 24] | positive | maximum absorbances |  | Maximum absorbances | absorbance maxima |
| GVLTVNGP [Peptide 71] | positive | maximum absorbances | Maximum absorbances | Maximum absorbances |  |
| HGFISREF [Peptide 56] | positive | maximum absorbances |  |  |  |
| HGKHEERQ [Peptide 51] | positive |  |  |  |  |
| IAIHHPWI [Peptide 2] |  | maximum absorbances |  |  |  |
| KHEERQDE [Peptide 52] | positive |  |  |  |  |
| KYRIPADV [Peptide 61] | positive |  |  | Maximum absorbances |  |
| LFPTSTSL [Peptide 19] | positive |  | Maximum absorbances |  |  |
| LKVKVLGD [Peptide 45] | positive |  |  | Maximum absorbances |  |
| LRAPSWFD [Peptide 28] |  |  |  |  | absorbance maxima |
| LRPPSFLR [Peptide 25] |  |  | Maximum absorbances |  |  |
| LTITSSLS [Peptide 66] | positive | maximum absorbances | Maximum absorbances | Maximum absorbances | absorbance maxima |
| LTVNGPRK [Peptide 72] | positive |  |  |  | absorbance maxima |
| PFFPFHSP [Peptide 7] | positive | maximum absorbances | Maximum absorbances |  |  |
| PPSFLRAP [Peptide 26] |  |  |  | Maximum absorbances |  |
| RLEKDRFS [Peptide 35] | positive |  | Maximum absorbances | Maximum absorbances |  |
| RTIPITRE [Peptide 79] | positive |  | Maximum absorbances | Maximum absorbances | absorbance maxima |
| SFLRAPSW [Peptide 27] | positive | maximum absorbances |  |  |  |
| SLSPFYLR [Peptide 22] | positive | maximum absorbances | Maximum absorbances |  | absorbance maxima |
| SPFYLRPP [Peptide 23] | positive |  |  | Maximum absorbances |  |
| SREFHRKY [Peptide 58] |  |  | Maximum absorbances |  |  |
